Series [1] addresses wheat germ rhodamine-calmodulin (r-CAM) (UniProt P04464). Nature of the series: single-molecule two-colour TIRFM, immobilised holoenzyme. The settings on record: reference: T287A holoenzyme (T306, T307 intact); sites T306,T307.
Series [2] deals with the molecule itself. Nature of the series: single-molecule stepwise photobleaching of Venus (TIRF microscopy); V-CaMKII held on a coverslip by GFP antibody; photobleaching steps in the Venus channel counted with a step-finder algorithm to give subunit stoichiometry (S_CaMKII).

Consider 2 molecules from paper PMC11630639, “Real-time single-molecule imaging of CaMKII-calmodulin interactions” (Biophysical Journal, 2024).

For “CaMKIIβ (Venus-CaMKIIβ) (from UniProt P28652) T287A/T306A/T307A holoenzyme”, the “other: τ+/τ− ratio” value in series [1] is “stronger; reference 1.76”.

B1: Venus-CaMKIIβ T287.306-307A holoenzyme (enzyme, mouse, UniProt P28652 1-542, looked up)
chain: MATTVTCTRFTDEYQLYEDIGKGAFSVVRRCVKLCTGHEYAAKIINTKKLSARDHQKLEREARICRLLKHSNIVRLHDSISEEGFHYLVFDLVTGGELFEDIVAREYYSEADASHCIQQILEAVLHCHQMGVVHRDLKPENLLLASKCKGAAVKLADFGLAIEVQGDQQAWFGFAGTPGYLSPEVLRKEAYGKPVDIWACGVILYILLVGYPPFWDEDQHKLYQQIKAGAYDFPSPEWDTVTPEAKNLINQMLTINPAKRITAHEALKHPWVCQRSTVASMMHRQEAVECLKKFNARRKLKGAILAAMLATRNFSVGRQTTAPATMSTAASGTTMGLVEQAKSLLNKKADGVKPQTNSTKNSSAITSPKGSLPPAALEPQTTVIHNPVDGIKESSDSTNTTIEDEDAKARKQEIIKTTEQLIEAVNNGDFEAYAKICDPGLTSFEPEALGNLVEGMDFHRFYFENLLAKNSKPIHTTILNPHVHVIGEDAACIAYIRLTQYIDGQGRPRTSQSEETRVWHRRDGKWQNVHFHCSGAPVAPLQ
notes: CaMKII β isoform with T to A substitutions at T287, T306 and T307; also called T287.T306.307A; phosphorylation-defective holoenzyme; source: E. coli BL21/Rosetta or BL21/C41, cotransformed with a protein phosphatase plasmid; copies: 14
Turning to B1, the binding result in series [2] was “binds”.
